Reference: paper PMC8491902, “Experimental and computational investigation of enzyme functional annotations uncovers misannotation in the EC 1.1.3.15 enzyme class” (PLoS Computational Biology, 2021)

Tests used:
B8MKR3 = biological target: T1, B8MKR3 (Talaromyces stipitatus, UniProt B8MKR3); experiment: cytochrome c reduction at […] nm; type: biochemical; details: 2 mM substrate; 0.1 mM cytochrome c; 20 mM HEPES pH 7.4
T1 construct: gene TSTA_043820
T1 sequence (B8MKR3 1-496): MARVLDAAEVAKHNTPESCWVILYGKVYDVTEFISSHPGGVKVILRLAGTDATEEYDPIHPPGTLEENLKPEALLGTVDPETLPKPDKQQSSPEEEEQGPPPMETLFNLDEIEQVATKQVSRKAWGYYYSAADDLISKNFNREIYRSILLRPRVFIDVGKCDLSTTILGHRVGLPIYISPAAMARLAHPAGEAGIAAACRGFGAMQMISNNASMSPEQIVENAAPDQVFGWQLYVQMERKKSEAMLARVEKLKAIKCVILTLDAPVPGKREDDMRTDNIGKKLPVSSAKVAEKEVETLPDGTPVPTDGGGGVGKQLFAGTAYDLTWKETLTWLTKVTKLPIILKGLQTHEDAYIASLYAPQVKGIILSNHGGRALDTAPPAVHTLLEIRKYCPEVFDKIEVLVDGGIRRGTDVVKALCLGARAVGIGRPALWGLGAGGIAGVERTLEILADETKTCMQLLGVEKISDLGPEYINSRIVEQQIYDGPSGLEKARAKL

E6SCX5 = biological target: T2, E6SCX5 (Intrasporangium calvum, UniProt E6SCX5); experiment: Amplex Red peroxide assay; type: biochemical; details: 1 mM DL-mandelate; 20 mM HEPES pH 7.4; HRP; lysate
T2 construct: gene Intca_2052; full-length synthetic gene in pET21a, C-terminal linker and deca-His tag, soluble E. coli BL21(DE3) lysate
T2 sequence (E6SCX5 1-415): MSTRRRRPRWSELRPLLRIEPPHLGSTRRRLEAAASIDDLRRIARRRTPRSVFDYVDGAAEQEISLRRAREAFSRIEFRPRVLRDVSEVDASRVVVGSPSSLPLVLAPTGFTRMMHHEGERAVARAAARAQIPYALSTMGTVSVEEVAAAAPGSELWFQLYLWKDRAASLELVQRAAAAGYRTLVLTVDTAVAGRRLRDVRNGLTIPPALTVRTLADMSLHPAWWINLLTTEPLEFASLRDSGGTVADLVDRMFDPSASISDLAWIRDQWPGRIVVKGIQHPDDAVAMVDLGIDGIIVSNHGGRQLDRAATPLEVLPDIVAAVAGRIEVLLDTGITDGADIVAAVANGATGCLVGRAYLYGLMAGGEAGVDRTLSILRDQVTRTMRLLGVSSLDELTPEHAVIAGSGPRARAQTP

C9Y9E7 = biological target: T3, C9Y9E7 (Curvibacter putative symbiont of Hydra magnipapillata, UniProt C9Y9E7); experiment: Amplex Red peroxide assay; type: biochemical; details: […] DL-mandelate; […] HEPES pH […]; HRP; lysate
T3 construct: gene lldD; full-length synthetic gene in pET21a, C-terminal linker and deca-His tag, soluble E. coli BL21(DE3) lysate
T3 sequence (C9Y9E7 1-381): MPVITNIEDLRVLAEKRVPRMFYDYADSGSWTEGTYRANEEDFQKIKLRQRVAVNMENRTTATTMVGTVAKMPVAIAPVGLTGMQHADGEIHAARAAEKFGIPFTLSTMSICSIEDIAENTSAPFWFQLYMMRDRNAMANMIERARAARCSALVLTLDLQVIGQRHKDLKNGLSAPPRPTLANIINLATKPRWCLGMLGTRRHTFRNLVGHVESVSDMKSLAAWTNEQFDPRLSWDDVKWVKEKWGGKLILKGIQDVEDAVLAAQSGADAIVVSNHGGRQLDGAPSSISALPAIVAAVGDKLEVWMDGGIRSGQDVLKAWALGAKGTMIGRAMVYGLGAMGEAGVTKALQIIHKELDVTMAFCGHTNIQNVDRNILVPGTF

W6W585 = biological target: T4, W6W585 (Rhizobium sp. CF080, UniProt W6W585); experiment: Amplex Red peroxide assay; type: biochemical; details: […] DL-mandelate; […] HEPES pH […]; HRP; lysate
T4 construct: gene PMI07_004712; full-length synthetic gene in pET21a, C-terminal linker and deca-His tag, soluble E. coli BL21(DE3) lysate
T4 sequence (W6W585 1-409): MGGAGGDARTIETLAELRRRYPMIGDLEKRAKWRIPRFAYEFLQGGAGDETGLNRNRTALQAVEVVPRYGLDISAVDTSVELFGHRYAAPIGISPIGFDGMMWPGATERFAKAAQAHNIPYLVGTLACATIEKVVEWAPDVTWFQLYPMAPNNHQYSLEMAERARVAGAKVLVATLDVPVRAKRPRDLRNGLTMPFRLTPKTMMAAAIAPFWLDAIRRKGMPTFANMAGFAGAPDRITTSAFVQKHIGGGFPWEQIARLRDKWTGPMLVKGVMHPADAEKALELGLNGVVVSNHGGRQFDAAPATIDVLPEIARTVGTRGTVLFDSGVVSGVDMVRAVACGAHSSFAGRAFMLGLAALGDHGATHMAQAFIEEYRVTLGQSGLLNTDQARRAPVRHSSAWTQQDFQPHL

purified protein [1] = substrate: C[C@@H](O)C(=O)O; experiment: purified protein; details: DCPIP + PMS as electron acceptor, 20 mM HEPES pH 7.4, 25 °C
purified protein [2] = substrate: O=P(O)(O)OC[C@H](O)CO; experiment: purified protein; type: biochemical, Caloramator mitchellensis; details: DCPIP + PMS as electron acceptor, 20 mM HEPES pH 7.4, 25 °C

C[C@H](O)C(=O)O [L-lactate]
cytochrome c reduction at 550 nm (B8MKR3): the B8MKR3 protein displayed cytochrome b2 L-lactate dehydrogenase activity

O=C(O)C(O)c1ccccc1 (racemic) [DL-mandelate]
Amplex Red peroxide assay (E6SCX5): the four proteins display a high activity with mandelate | Amplex Red peroxide assay (C9Y9E7): the four proteins display a high activity with mandelate | Amplex Red peroxide assay (W6W585): the four proteins display a high activity with mandelate

B1: D4MUV9 (Anaerostipes hadrus) (protein)
chain: MSEYQYNKVTPEMIEKFKEIAPKRVLVGDEINEDFTHDEMAIYGKARPEVLVEATSTEEVAAVVKLCNENKIPVTPSGARTGLVGGAVSIGGGVMISLTKMNKILGYDKENFVVKIQSGVLLNDLAQDAEKQGLLYPPDPGEKFATVGGNVATNAGGMRAVKYGCTRDYVRAMTVVLPTGEIVKLGATVSKTSSGYSLLNLMIGSEGTLGIITELTLKVIPAPKSVISLIIPYENLEDCIATVPQFFMHHLAPQALEFMEKEVVMDTEKFLGKQVYPKELEGTEIGAYLLATFDGNSEEQLEDIIEQASEVVLEAGAIDVLVADTPALKKDAWAVRGALLEAIEADTVLLDECDVVVPTNKIAEFLTYTKSLEAEADFRVKSFGHAGDGNLHIYTCSNDMEEGEFKKQVAVFMDKVYAKATEFGGMISGEHGIGHGKMDYLAESLGPVQMRIMEGVKEVFDPNMILNPGKICYKL
Km (purified protein [1]): 0.40 +/- 0.04 x 10^-3 M | kcat (purified protein [1]): 5.18 s⁻¹ | kcat/Km (purified protein [1]): 13100 M⁻¹ s⁻¹

B2: A0A0R3K2G2 (Caloramator mitchellensis) (protein)
chain: MFDVAIIGAGVIGCSIARELSKYNLNVALIEKENDVGNVTTKANSAIIHAGYDAKPGTLKGKLNAKGNLMFDELCRELEVPFKRVGSLVLAFDDDEMKTLGKLYEQGIQNGVPELYILSKEKVLEMDPNISDNIKGALYAKTGGIIGPWEFTIALAENAVENGVNIFLSNEVVDIEKKDFGYRIITNKDTYDTKYVVNCAGLYADKINNMVSNNKMEIIPRRGQYYLLDKTVGNLVKYVIFQCPSKLGKGVLVTPTVHGNLLIGPDAEDLIDKTALNTTSEGLNFIVEVARRSVKTLPLNMAITNFAGLRARTERDDFIIEEAVDAKGFINVAGIESPGLSSAPAISLYVIDILKNIAKKIEKKENFNPYRRAIPKFIELSEDEKNELVKKDKRFGKIICRCESITEGEIVSAIHRNVGARTVDAVKRRVRAGMGRCQGGFCSPRVIEILARELGVEMTEIEKDHEGSYILTGPTKSEVQ
Km (purified protein [2]): 1.97 +/- 0.23 x 10^-3 M | kcat (purified protein [2]): 0.242 s⁻¹ | kcat/Km (purified protein [2]): 123 M⁻¹ s⁻¹
